Experimental data published in patent publication US20180030098A1 (NAVIGO PROTEINS, published 2018).

Target: T1, Recombinant human EGFR-Fc Chimera (R&D Systems, catalog no. 344-ER-050) (human, UniProt P00533 25-645)
T1 construct: range 1-645; Bought reagent; Immobilised on the CM5 chip for SPR; also called hEGFR-Fc; not shown: Fc region of human IgG1, fused at the C-terminus
Test: SPR (Biacore) on immobilised hEGFR-Fc

- Kd: 615 nM
B1: Affilin 138838 (designed binder)
chain: MQIFVYTNTGKTITLEVEPSDTIENVKAKIQDKEGIPPDQQRLIWAGKQLEDGRTLSDYNIRNPDILHLVLRLRAAGIGMQIFVHTITGKTITLEVEPSDTIENVKAKIQDKEGIPPDQQRLIWAGKQLEDGRTLSDYNIEGERDLHLVLRLRAA
notes: Affilin of two ubiquitin moieties with PDI motif
